This data set concerns the molecule itself. Kind of data set: native gel or EMSA; blue native (BN)-PAGE of immuno-purified FLAG-PI3KAP/XB130 on NativePAGE Novex Bis-Tris gels, immunoblot with anti-FLAG antibody. (In general: A gel shift assay detects complexes by their altered migration in electrophoresis.)

B1: FLAG-tagged recombinant full-length PI3KAP/XB130 (natural protein, mouse, UniProt Q5DTU0-2 1-843, looked up)
chain: MERYKAQGCCCLVVQRRILQVSASLEQLLTELDDFLKVLDQENLSSAAVLKKSGLSELLRLYTKSSSSDEEYIYMNKVSVNGEQNSASPDKVPEEQGPLTNGEPSQHSSAPQKSLPDLPPPKMIPERKQPTVPKIESPEGYYEEAEPFDRSINEDGEAVSSSYESYDEDENSKGKAAPYQWPSPEASIELMRDARICAFLWRKKWLGQWAKQLCVIRDTRLLCYKSSKDHSPQLDVNLRGSSVVHKEKQVRKKGHKLKITPMNADVIVLGLQSKDQAEQWLRVIQEVSGLPSEGASEGNQYTPDAQRLNCQKPDIAEKYLSAAEYGITINGHPEIPETKDVKKKCSAGLKLSNLMNLGRKKSTSLEPPERSLETSSYLNVLVNSQWKSRWCFVRDSHLHFYQDRNRSKVAQQPLSLVGCDVLPDPSPDHLYSFRILHNGEELAKLEAKSSEEMGHWLGLLLSESGSKTDPEELTYDYVDAERVSCIVSAAKTSLLLMQRKFSEPNTYIDGLPSRDCQDDLYDDVEVSELIAVVEPAEEAAPAVDANSGSEPDRVYLDLTPVKSFLHSSSEAQAQASLPAVPHQDDVAETLTVDPKPGTTPEEPHTESPGDPEVQQRQPEVQESSEPIEPTPRITMVKLQAEQQRISFPANCPDTMASAPIAASPPVKEKLRVTSAEIKLGKNRTEAEVKRYTEEKERLERSKEEIRGHLAQLRREKRELKETLLRCTDKGVLAKLEQTLKKIDEECRMEESRRVDLELSIMEVKDNLKKAEAGPVTLGTTVDTTHLDNMSPRPQPKAATPNPPPDSTPVNSASVLKNRPLSVMVTGKGTVLQKAKEWEKKGAS
notes: also called FLAG-PI3KAP/XB130; FLAG-PI3KAPXB130; source: HEK293T, transfected (pShuttle2): purified with anti-FLAG M2 agarose and eluted with FLAG peptide; also in lysate (co-immunoprecipitation)
On to B1, for which the binding result is “binds”.

The values are drawn from PMC4939424, “Phosphatidylinositol 3-Kinase-Associated Protein (PI3KAP)/XB130 Crosslinks Actin Filaments through Its Actin Binding and Multimerization Properties In Vitro and Enhances Endocytosis in HEK293 Cells” (Frontiers in Endocrinology, 2016).
